We go through one molecule from US20110159022A1, “Immunogenic Peptides Derived from the Midkine Protein, as an Anticancer Vaccine” (priority 2008, published 2011).

Where no end group is shown, it is not given here.

In this experiment the target is T1, HLA-DR13 (DRB1*1301) (human).
T1 chain 1: not shown
T1 chain 2: not shown
Nature of the experiment: competition ELISA, nonbiotinylated reference peptide against its biotinylated tracer.

Broadly, the IC50 is the midpoint of a concentration-inhibition curve. A high value points to a need for much substance. The molecule TERVRLVTRHIYNREE (not fully specified) [B1 21-36 (nonbiotinylated reference peptide)] gave an IC50 of 39 nM.
